Laboratory results reported in patent US20160159862A1 (PROTAGONIST THERAPEUTICS, published 2016).
Bridge positions count the residues as written; N and C are the ends. Square brackets hold non-standard residues; d marks the D form. Primed or numbered codes have the meaning given here. Ends that are not written are not given here. PEG13′ = Bifunctional PEG linker with 13 polyethylene glycol units; PEG25′ = Bifunctional PEG linker with 25 polyethylene glycol units; Phe(4-CF3) = N[C@@H](Cc1ccc(C(F)(F)F)cc1)C(=O)O; Bip = N[C@@H](Cc1ccc(-c2ccccc2)cc1)C(=O)O; 1Nal = N[C@@H](Cc1cccc2ccccc12)C(=O)O; 2Nal = N[C@@H](Cc1ccc2ccccc2c1)C(=O)O; NMeR = CN[C@@H](CCCNC(=N)N)C(=O)O; Tic = O=C(O)[C@@H]1Cc2ccccc2CN1; β3hE = N[C@@H](CCC(=O)O)CC(=O)O; NMeK = CN[C@@H](CCCCN)C(=O)O; Pen = CC(C)(S)[C@H](N)C(=O)O

Target: α4β7 integrin on human cells (human, UniProt P13612 34-1032; P26010 20-798)
Experiment: cell-based or functional assay

Binder | α4β7 cell (Hu) IC50
Ac-[Pen][NMeR]SDTL[Pen][1Nal][Tic][dK]-NH2 (disulfide 1-7 (inferred); also: homodimer via DIG) [SEQ ID NO 115] | > 100 nM
Ac-[Pen][NMeR]SDTL[Pen][Bip][β3hE][dK]-NH2 (disulfide 1-7 (inferred); also: homodimer via DIG) [SEQ ID NO 135] | ≤ 10 nM
Ac-[Pen][NMeR]SDTL[Pen]W[BetaE][dK]-NH2 (disulfide 1-7 (inferred); also: dimer via DIG) [SEQ ID NO 1] | > 50 nM
[PEG25′]C[NMeR]SDTL[Pen]W-NH2 (disulfide 2-8 (inferred)) [SEQ ID NO 21] | > 50 nM
Ac-[Pen][NMeR]SDTL[Pen][1Nal][dT][dK]-NH2 (disulfide 1-7 (inferred); also: homodimer via DIG) [SEQ ID NO 116] | > 50 nM
Ac-[Pen][NMeR]SDTL[Pen][Bip]E[NMeK]-NH2 (disulfide 1-7 (inferred); also: homodimer via DIG) [SEQ ID NO 136] | ≤ 10 nM
Ac-[Pen][NMeR]SDTL[Pen][2Nal][dH][dK]-NH2 (disulfide 1-7 (inferred); also: homodimer via DIG) [SEQ ID NO 118] | > 25 nM
XRSDTLXW (Ac-Pen-(N-Me-R)-S-D-T-L-Pen-W-OH; disulfide) [SEQ ID NO 127] | > 100 nM
Ac-[Pen][NMeR]SDTL[Pen]WE-OH (disulfide 1-7 (inferred)) [SEQ ID NO 128] | > 50 nM
[PEG13′]C[NMeR]SDTL[Pen]W-NH2 (disulfide 2-8 (inferred)) [SEQ ID NO 20] | > 50 nM
Ac-[Pen][NMeR]SDTL[Pen][Phe(4-CF3)][dE][dK]-NH2 (disulfide 1-7 (inferred); also: homodimer via DIG) [SEQ ID NO 122] | > 50 nM

Continued, values first:

α4β7 cell (Hu) IC50 | Binder
> 1000 nM | Ac-[Pen][NMeR]SDTL[Pen][2Nal][dR][dK]-NH2 (disulfide 1-7 (inferred); also: homodimer via DIG) [SEQ ID NO 120]
> 50 nM | Ac-[Pen][NMeR]SDTL[Pen]Y[dE][dK]-NH2 (disulfide 1-7 (inferred); also: homodimer via DIG) [SEQ ID NO 123]
> 100 nM | Ac-[Pen][NMeR]SDTL[Pen]H[dE][dK]-NH2 (disulfide 1-7 (inferred); also: homodimer via DIG) [SEQ ID NO 124]
> 500 nM | Ac-[Pen][NMeR]SDTL[Pen][2Nal][dL][dK]-NH2 (disulfide 1-7 (inferred); also: homodimer via DIG) [SEQ ID NO 119]
> 100 nM | Ac-[Pen][NMeR]SDTL[Pen][2Nal][Tic][dK]-NH2 (disulfide 1-7 (inferred); also: homodimer via DIG) [SEQ ID NO 121]
> 100 nM | Ac-[Pen][NMeR]SDTL[Pen][2Nal][dF][dK]-NH2 (disulfide 1-7 (inferred); also: homodimer via DIG) [SEQ ID NO 117]
